Earlier results as cited in article PMC10136230.

Target: AGE-albumin (UniProt P02768)
Assay: 125I-labeled ligand binding

Kd: 200 nM
Substance: RAGE (from UniProt Q15109)
